In the supplement of paper PMC10567573:

B1: ZNF649 (parent)
chain: YHTGKTPFVCPECGQPCSQKSGLI

Variants of: B1
Experiment: protein stability index of a GFP-peptide fusion (GPS, HEK-293T) (PSI 1-6); higher = more stable
Details: c terminus: a fixed tail appended
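Further: lentivirally expressed fusions sorted by FACS into six bins by GFP to DsRed ratio, PSI derived from sequencing read proportions per bin multiplied by bin number.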

Protein stability index, by site and new letter:
C13: Y 3.41; F 2.8; Q 2.54; N 1.83; P 2.27; S 1.62; M 2.98; V 2.13; T 2.99; I 2.35; R 2.37; D 2.6; E 2.87; K 3.33; A 3.53; H 3
E12: Y 2.26; T 2.07; R 2.32; H 1.54; D 3.08; V 2.22; A 1.96; S 2.11; I 1.91; K 2.35; M 1.23; L 2.16; W 2.06; F 2.31; Q 1.9; G 3.37; N 1.53
C10: L 2.06; R 1.75; M 1.53; N 2.23; P 1.54; Q 1.27; K 1.76; F 1.98; Y 2.29; E 1.33; V 1.81; H 1; G 2.31; S 2.85; T 2.37; D 1.61; W 2.79; I 2.33
G22: F 2.34; E 2.32; L 2.97; Y 3; Q 2.2; K 1.89; W 1.63; I 2.15; P 2.91; R 2.22; T 1.65; M 1.87; S 2.63; C 2.19; A 1.81; D 1.49; N 2.3; V 2.92; H 2.72
S21: E 1.85; V 1.6; D 1.76; F 1.89; R 1.92; C 2.32; H 1.81; I 1.67; Y 2.56; T 1.96; G 2.41; L 2.15; Q 1.56; N 1.93; M 2.26; K 1.4; A 1.4; P 1.9
G4: M 1.89; L 2.41; N 1.67; V 2.88; I 1.69; E 2.89; H 1.96; K 2.18; C 2.49; Q 1.51; D 2.48; Y 1.69; P 1.83; R 1.62; F 2.36; T 2.62
Q19: T 2.81; C 2.69; N 1.59; S 2.96; G 1.49; I 1.57; M 2.49; R 2.27; E 1.71; F 2; W 1.23; D 2.37; P 2.04; K 1.29; A 1.58; H 2.2
Q15: R 1.63; N 3.41; T 2.35; M 2.16; S 2.21; V 1.5; G 1.45; E 2.65; F 3.01; I 1.62; W 1.83; C 1.89; K 2.35; H 2.23; Y 1.75
S18: T 2.5; E 3.48; N 1.22; G 1.43; V 1.44; C 2.08; A 2.31; Y 2.4; K 1.46; D 2.25; W 1.82; L 1.85; Q 1.49; P 2.26; H 1.26; M 3.02; I 2.47; F 2.27
K20: D 1.72; M 1.53; R 2.69; C 4.04; Y 3.04; T 1.8; N 1.07; V 1.43; E 1.35; L 1.37; H 2.43; I 3.23; A 2.05; S 2.53; P 2.1; Q 3.76
V9: E 1.61; T 2.43; H 2.47; N 3; G 1.79; A 3.38; Q 2.02; F 3.17; L 2.99; Y 3.65; K 1.58; R 2.24; D 2.39; W 2.49; I 2.38
P16: N 1.23; V 2.44; Y 1.04; G 2.99; C 4.29; D 1.91; E 2.79; I 1.87; T 1.34; K 1.98; L 2.82; Q 2.37; F 2.1; M 1.86; S 1.9; A 2.79; R 1.54; H 2.65
T6: A 2.07; N 2.89; L 2.21; M 1.68; F 2.42; E 2.89; G 1.71; K 1.79; D 1.92; V 1.65; S 1.53; P 2.19; W 1.96; C 1.45; I 2.22; Q 2.96; H 2.91
K5: N 1.81; W 2.1; D 1.77; S 2.62; A 1.62; R 2; E 2.16; G 2.54; M 2.44; T 1.13; H 1.86; Y 3.06; P 2.66; F 1.88; Q 1.86; L 2
G14: T 3.65; E 1.95; R 3.6; A 2.16; K 2.76; I 1.79; Y 2.27; F 1.94; W 1.61; P 2.54; M 2.05; V 2.06; Q 2.31; S 1.72; C 2.12
P11: Q 1.57; R 1.79; I 1.69; G 1.43; H 2.16; E 1.61; S 1.93; L 1.71; K 2.46; V 2.33; M 2.32; D 1.4; A 2.04; T 2.49; C 1.65; N 1.62; F 2.44
C17: T 2.04; G 2.94; N 2.76; D 2.63; I 2.01; M 2.14; K 3.83; P 2.54; L 1.66; H 1.73; A 3.38; F 1.59; Q 1.96; S 2.81; E 1.48; Y 2.35; V 2.26
P7: S 1.6; R 1.03; H 3.19; N 1.98; C 2.26; Q 1.77; D 2.05; I 1.76; G 2.05; L 2.12; T 2.52; M 1.22; E 1.44; A 1.73; W 2.04
F8: V 1.78; I 2.24; Q 2.69; S 2.15; L 2.1; R 2.09; K 1.82; E 2.52; C 1.83; P 2.46; D 2.17; N 2.16; M 1.62; Y 1.54; G 1.8; A 1.84; H 2.41; T 1.67
L23: D 2.12; H 2.05; A 1.59; N 3.38; Q 3.01; G 4.1; K 2.56; S 2.72; T 2.2; M 1.46; V 2.58; P 2.15; C 2.83; R 1.92; I 2.03; E 1.03; W 1.16
